The source of these data is patent publication US20230151373A1, “CHIMERIC POLYPEPTIDE FOR REGULATING IMMUNE CELLS” (STICHTING HET NEDERLANDS KANKER INSTITUUT-ANTONI VAN …, priority 2019, published 2023).

This assay addresses CD3 ζ chain (phosphorylated ITAMs) of the TCR complex (human) (UniProt P20963). In words: cell-based or functional assay.

CD3 ζ chain (phosphorylated ITAMs) of the TCR complex (human), sequence (P20963 22-164, one chain of several): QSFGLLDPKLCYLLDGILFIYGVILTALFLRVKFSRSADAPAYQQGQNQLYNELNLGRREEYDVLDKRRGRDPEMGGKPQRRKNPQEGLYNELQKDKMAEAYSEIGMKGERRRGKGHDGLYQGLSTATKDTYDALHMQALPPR

“Zap70 2×SH2 domains-PD1 tail fusion protein (from UniProt P43403 1-264; Q15116 192-288)” displayed a reduction in percentage responding cells (IFNγ), CDK4 TCR T cells co-cultured with 10 nM peptide loaded T2 cells, relative to vector control of 104 fold; a reduction in percentage responding cells (IL-2), CDK4 TCR T cells co-cultured with 10 nM peptide loaded T2 cells, relative to vector control of 110 fold; a reduction in percentage responding cells (TNFα), CDK4 TCR T cells co-cultured with 10 nM peptide loaded T2 cells, relative to vector control of 81 fold; a reduction in percentage responding cells (cell surface LAMP1), CDK4 TCR T cells co-cultured with 10 nM peptide loaded T2 cells, relative to vector control of 40 fold.
